Reference: patent publication US10836808B2, “Binding-triggered transcriptional switches and methods of use thereof” (The Regents of the University of California, priority 2015, dated 2020)

Legend:
gamma secretase = experiment: Chimeric Notch (anti-CD19 scFv/tTA) receiver cell GFP reporter with CD19 sender cells, with or without DAPT; format: cell-based, mouse; conditions: 1 mM DAPT, in the presence of CD19 sender cells
Text: DAPT is a gamma secretase inhibitor. The data are expressed as GFP^+“receiver” cells.

K562 cells = experiment: Sensitivity of cancer cell lines to recombinant TRAIL; format: cell-based; conditions: 1 to 200 ng/mL, 24 hours
Procedure: (§1) The cells were then harvested and stained with the live/dead stain, SYTOX Blue (Thermo Scientific #S34857) and the fraction of dead cells was determined by flow cytometry on a BD LSR II.

[1] = system: HCT116 colon cancer cells; experiment: as above; format: cell-based; conditions: 1 to 200 ng/mL, 24 hours
Procedure: as §1

## C[C@H](NC(=O)Cc1cc(F)cc(F)c1)C(=O)NC(C(=O)OC(C)(C)C)c1ccccc1 (some centres unmarked) [DAPT]
Gamma secretase
  GFP+ receiver cells: at control, untreated levels

B1: soluble TRAIL: an inducer of apoptosis and a cancer therapeutic (protein, UniProt P50591 39-281, looked up)
extracellular domain: TNELKQMQDKYSKSGIACFLKEDDSYWDPNDEESMNSPCWQVKWQLRQLVRKMILRTSEETISTVQEKQQNISPLVRERGPQRVAAHITGTRGRSNTLSSPNSKNEKALGRKINSWESSRSGHSFLSNLHLRNGELVIHEKGFYYIYSQTYFRFQEEIKENTKNDKQMVQYIYKYTSYPDPILLMKSARNSCWSKDAEYGLYSIYQGGIFELKENDRIFVSVTNEHLIDMDHEASFFGAFLVG
modifications: extracellular domain
notes: an inducer of apoptosis and a cancer therapeutic
K562 cells
  induction of apoptosis in cancer cell line: does not induce apoptosis even at high doses
K562 cells; listed as recombinant TRAIL
  induction of apoptosis in cancer cell line: insensitive to TRAIL treatment
[1]
  killing of cancer cell line: effective at killing
[1]; listed as recombinant TRAIL
  killing of cancer cell line: sensitive to low level TRAIL treatment
